Experimental data published in article doi:10.1101/2021.11.12.467822.

Columns and labels:
[1] = target: fluorescently labeled K48-Ub4 (S20C on the most distal Ub, Alexa Fluor 488) (UniProt P0CG48); assay: fluorescence polarisation
full-length (FL) UBQLN2 = full-length (FL) UBQLN2 (UniProt Q9UHD9); assay: NMR titration

Row | Kd [1] | Kd (full-length (FL) UBQLN2) | Substance
1 | 2.7 µM |  | UBQLN2 450-624 (from UniProt Q9UHD9 450-624) (domain or fragment)
2 |  | 3 µM | ubiquitin (Ub) (from UniProt P0CG48 1-76) (natural protein; other documents disagree on this pair)
